Measured values from patent publication US11180762B2, “Methods and compositions for the treatment of cancer” (CHILDREN'S MEDICAL CENTER CORPORATION, priority 2014, dated 2021).
Entries after “also recorded” stand apart in the source; their conditions may differ.

Columns and labels:
[1] = system: human breast tumor and normal breast tissue biopsies; test: Uptake in human breast tumor and normal tissue biopsy explants; format: cell-based; settings: 2 μM; 24 h; flow cytometry of single cell suspensions
Excerpt: It was next examined whether EpCAM-AsiCs concentrate in human breast tumors relative to normal breast samples within intact tissues. Paired normal tissue and breast tumor biopsies from 3 breast cancer patients were cut into cubes with −3 mm edges and placed in Petri dishes. The tumor sample cells were all EpCAM^bright and the normal tissue cells were EpCAM^dim (FIG. 3A). Fluorescently labeled Alexa647-siRNAs (not expected to be taken up by either normal tissue or tumor), Alexa647-cholesterol-conjugated siRNAs (chol-siRNAs, expected to be taken up by both), or Cy3-EpCAM-AsiCs were added to the culture medium and the tissues were incubated for 24 hr before harvest. The Cy3 signal of the AsiC, which could be visualized by the naked eye, concentrated only in the tumor specimens and was not detected in normal tissue (FIG. 3B). To quantify RNA uptake, flow cytometry analysis was performed on washed single cell suspensions of the tissue specimens (representative tumor-normal tissue pair (FIG. 3C), mean±SD of triplicate biospies from 3 EpCAM^bright paired breast tumor-normal tissue samples (FIG. 3D)). […] Thus, within intact tissue, EpCAM-AsiCs are selectively delivered to EpCAM^bright tumors relative to normal tissue. […]

subcutaneous tumors = test: Tumor accumulation after intravenous injection of fluorescent EpCAM-AsiCs; format: in vivo, nude mice; settings: tail vein
Excerpt: To be clinically useful, EpCAM-AsiCs need to be taken up by disseminated tumor cells. […] The EpCAM-AsiCs were detected around the injection site on day 2, but were only found within the EpCAM+ tumor on day 4.

[2] = system: IFNβ, IL-6, IP-10 and IFN-induced genes; test: Innate immune stimulation in mice; format: in vivo; settings: 5 mg/kg sc
Experimental: Mice were injected sc with eGFP EpCAM-AsiCs (5 mg/kg, n=3) or ip with Poly(I:C) (5 or 50 mg/kg (n=2/dose). FIG. 8A: Serum samples, collected at baseline and 6 and 16 hr after treatment were assessed for IFNβ, IL-6 and IP-10 by multiplex immunoassay. * p<0.05. ** p<0.01, *** p<0.001, compared to baseline. FIG. 8B: mRNA expression of cytokine and IFN-induced genes, relative to gapdh was assayed by qRT-PCR in total splenocytes harvested 16 hr post treatment. ** p<0.01, compared to untreated (NT, n=3).
Mice were injected sc with eGFP EpCAM-AsiCs (5 mg/kg) or ip with Poly(I:C) (5 or 50 mg/kg). Serum samples, collected at baseline and 6 and 16 hr after treatment were stored at −80° C. before measuring IFNβ, IL-6 and IP-10 using the ProcartaPlex Multiplex Immunoassay (Affymetrix/eBioscience, San Diego, Calif.). Spleens, harvested at sacrifice 16 hr post treatment, were stored in RNAlater (Qiagen) before extracting RNA using TRIZOL (Invitrogen) with the gentleMACS Dissociator (MACS Miltenyi Biotec, San Diego, Calif.). cDNA was synthesized using Superscript III and random hexamers (Invitrogen) and PCR was performed using SsoFast EvaGreen Supermix and a Bio-Rad CFX96 Real-Time PCR System (Bio-Rad Laboratories, Hercules, Calif.) using the following primers: […]

[3] = system: basal-A, luminal and basal-B breast cancer cell lines; test: Cell proliferation/viability by CellTiter-Glo in 10 breast cancer cell lines; format: cell-based, human
Excerpt: To explore whether EpCAM-AsiCs could be used as anti-tumor agents in breast cancer, we examined by CellTiterGlo assay the effect of AsiCs directed against PLK1, a kinase required for mitosis, on survival of 10 breast cancer cell lines that included 5 basal-A TNBCs, 2 luminal cell lines, and 3 basal-B TNBCs. […] The anti-proliferative effect strongly correlated with EpCAM expression (FIG. 2B). The reduction in viable EpCAM+ cells after knockdown was due to induction of apoptosis, assessed by annexin V-propidium iodide staining and caspase activation (data not shown). To determine whether ligation of the EpCAM aptamer contributed to the anti-proliferative effect of the EpCAM-AsiC, we compared survival of cells that were treated with the PLK1 EpCAM-AsiC with cells treated with the aptamer on its own (FIG. 2C). […] Thus the PLK1 EpCAM-AsiC asserts its specific anti-tumor effect on EpCAM+ breast cancer cells by gene knockdown.
For uptake and silencing treatment, cells were plated at low density (10,000 cells/well in 96-well plates) and treated immediately. All AsiC and siRNA treatments were performed in either OptiMEM or WIT medium. Cell viability was assessed by CellTiter-Glo (Promega) or by Trypan-Blue staining in 96-well plates.

MB468-luc cells = test: Tumor initiation by ex vivo treated EpCAM+ cells in nude mice; settings: cells treated ex vivo 24 h/overnight, then implanted, imaged 20 days
Experimental: For tumor initiation studies 8-week old female Nu/J mice (Stock #002019, Jackson Laboratories) were injected subcutaneously with MB468-luc (5×10^6) cells pretreated for 24 h with EpCAM-AsiC-GFP, EpCAM-AsiC-PLK1 or untreated. Cells were trypsinized with Tryple Express (Invitrogen), resuspended in WIT media and injected subcutaneously in the flank. Following intraperitoneal injection of 150 mg/kg D-luciferin (Caliper Life Sciences) luminescent images of the whole body were taken every 5 days for a total of 20 days using the IVIS Spectra system (Caliper Life Sciences).

MCF10CA1a (CA1a) tumor = test: MCF10CA1a tumor growth, AsiC injected sc near the tumor; format: in vivo, mice; settings: luminescent photon flux, N=4
Experimental: The top panel depicts the experimental scheme. In this experiment the AsiCs were injected sc in the flank near the tumor, but not into the tumor. The bottom panel depicts a graph of Log2 total luminescent photon flux of the tumors (N=4); *, P<0.05 by Student's t-test.

[4] = listed as EpCAM-AsiC targeting PLK1
[5] = listed as EpCAM-AsiCs targeting PLK1

B1: EpCAM-AsiC: EpCAM aptamer-siRNA chimera, siRNA cargo not specified at the place; 2'-fluoropyrimidines, 3'-dTdT (nucleic acid)
sense: GCGACUGGUUACCCGGUCGUUUUGAAGAAGAUCACCCUCCUUATT
antisense: UAAGGAGGGUGAUCUUCUUCATT
modifications: DNA at T, 2'-fluoro at CU, RNA at AG, backbone not given here; further chemistry not fully specified
notes: EpCAM aptamer-siRNA chimera, siRNA cargo not specified at the place; 2'-fluoropyrimidines, 3'-dTdT
In the case of B1, the “uptake by breast tumor vs normal tissue” value [1] is reported as “concentrated only in the tumors”, the “tumor accumulation after intravenous injection” value (subcutaneous tumors) is reported as “did not lead to significant AsiC accumulation within subcutaneous tumors” and the innate immune stimulation [2] is reported as “do not trigger innate immunity”. The innate immune stimulation ([2]; listed as EpCAM AsiCs) was “does not stimulate innate immunity in mice”.

B2: PLK1 EpCAM-AsiC: EpCAM aptamer linked by U-U-U to PLK1 siRNA sense strand (SEQ ID NO: 1), annealed to antisense strand (SEQ ID NO: 2) (nucleic acid)
sense: B1 sense
antisense: UAAGGAGGGUGAUCUUCUUCATT
modifications: DNA at T, 2'-fluoro at CU, RNA at AG, backbone not given here; EpCAM aptamer fused to sense strand
In the case of B2, the “cell proliferation/viability, basal-A and luminal (EpCAM+) lines” value [3, 4] is reported as “displayed a decrease in cell viability; also recorded: decreased cell proliferation in both basal A and luminal cell lines; also recorded: suppressed cell viability in basal A and luminal cell lines”, the “cell proliferation/viability, basal-B lines” value [3, 4] is reported as “having no effect on basal B cells” and the “cell proliferation/viability, basal-A and luminal (EpCAM+) lines” value [3, 5] is reported as “decreased cell proliferation”. The “cell proliferation/viability, basal-B lines” value [3, 5] was “did not inhibit basal-B cells”, the “tumor initiation, EpCAM+ cells” value (MB468-luc cells; [4]) was “did not show any sign of a tumor after 20 days; also recorded: no tumor initiation” and the “tumor initiation, EpCAM+ cells” value (MB468-luc cells; listed as PLK1 EpCAM-AsiCs) was “completely blocked tumor formation; also recorded: eliminated tumor initiation by basal-like TNBCs; also recorded: eliminated their ability to form tumors in nude mice”. The MCF10CA1a tumor growth (MCF10CA1a (CA1a) tumor) was “suppresses MCF10CA1a (CA1a) tumor growth”.
